In US9493537 one finds tumor uptake in B16/F1 melanoma-bearing C57 mice and tumor uptake in B16/F1 melanoma-bearing C57 mice blocked by 10 µg (6.07 nmol) of non-radiolabeled NDP-MSH data, which are given here for two substances.

The target of the assay is melanocortin-1 (MC1) receptor on B16/F1 murine melanoma cells (mouse (B16/F1 murine melanoma cells)) (UniProt Q01727). Description: cell-based or functional assay.
Sequence of melanocortin-1 (MC1) receptor on B16/F1 murine melanoma cells (mouse (B16/F1 murine melanoma cells)) (Q01727 whole entry): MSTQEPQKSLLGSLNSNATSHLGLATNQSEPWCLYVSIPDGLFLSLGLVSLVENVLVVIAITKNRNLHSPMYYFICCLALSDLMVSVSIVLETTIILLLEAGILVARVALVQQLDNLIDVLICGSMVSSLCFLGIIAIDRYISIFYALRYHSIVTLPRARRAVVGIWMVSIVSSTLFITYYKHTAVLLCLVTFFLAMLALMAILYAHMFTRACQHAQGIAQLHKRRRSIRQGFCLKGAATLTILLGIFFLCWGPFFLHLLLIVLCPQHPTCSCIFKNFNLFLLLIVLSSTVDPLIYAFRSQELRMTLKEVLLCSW

Turning to 111In-DOTA-GENle-CycMSHhex (peptide), the tumor uptake in B16/F1 melanoma-bearing C57 mice at 2 h blocked by co-injection of non-radioactive NDP-MSH turned out to be 95.6%.

Take 111In-DOTA-GGNle-CycMSHhex (peptide): the tumor uptake in B16/F1 melanoma-bearing C57 mice blocked by 10 µg (6.07 nmol) of non-radiolabeled NDP-MSH is 98%.
